In patent US7192728B2, “Screening assays for agents that alter inhibitor of apoptosis (IAP) protein regulation of caspase activity” (The Burnham Institute, priority 1997, dated 2007):

Assays:
[1] = system: DEVD-pNA hydrolysis activity in Jurkat T cell cytosolic extracts; test: Cytochrome c/dATP-induced caspase activation (DEVD-pNA hydrolysis) in Jurkat T cell cytosolic extracts; format: biochemical
Protocol: Cells were washed with ice cold buffer A (20 mM Hepes (pH 7.5), 10 mM KCl, 1.5 mM MgCl2, 1 mM EDTA, 1 mM DTT and 0.1 mM PMSF) and suspended in 1 vol buffer A, then incubated on ice for 20 min. 293 cells were disrupted by passage 15× through a 26 gauge needle and Jurkat T cells were disrupted by dounce homogenization in 2 ml using 15 strokes with a pestle B. Cell extracts (10–15 mg total protein/ml) were clarified by centrifugation at 16,000×g for 30 min, then the NaCl concentration was increased by 50 mM. Cytosolic fractions were used immediately or stored frozen at −80° C.
Caspase activity was assayed by release of either 7-amino-4-trifluoromethyl-coumarin (AFC) or p-nitroanilide (pNA) from benzylyoxycarbonyl-DEVD (SEQ ID NO: 2) or benzylyoxycarbonyl-YVAD (SEQ ID NO: 3) synthetic peptides using a Molecular Devices Spectromax 340 for AFC labeled peptides or Perkin/Elmer LS50B for pNA labeled peptides (see Example II; see, also, Zhou et al., supra, 1997). Cytosolic extracts from 293 cells or Jurkat T cells were used directly (negative control) or were treated with 1 μM cytochrome c and 1 mM dATP or with cytochrome c, dATP and 0.2 μM GST-XIAP. Additional control reactions were performed by substituting 2 μM GST-Bcl-2, GST-Bax, GST-NM23 or GST-CD40 cytosolic domain, or 5 μM His6-S5a protein for GST-XIAP. DEVD-pNA hydrolysis was measured at various times and multiple experiments were performed using several different GST-XIAP preparations.

caspase-7 = target: T1, caspase-7 (Homo sapiens, UniProt P55210); test: GST pull-down binding to caspase-7; settings: glutathione-Sepharose beads, immunoblot
T1 construct: Purified active caspase concentrations ranged from 0.1 nM to 10 nM; His6; made in house; host or cells: E. coli BL21(DE3)pLysS
T1 sequence (P55210 24-198 limits assumed): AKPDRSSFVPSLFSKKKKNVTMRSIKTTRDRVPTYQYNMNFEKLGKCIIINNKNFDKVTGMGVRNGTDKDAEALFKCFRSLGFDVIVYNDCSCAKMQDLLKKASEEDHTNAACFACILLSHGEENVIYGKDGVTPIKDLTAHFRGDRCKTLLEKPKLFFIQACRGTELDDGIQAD
T1 sequence (P55210 207-303 limits assumed): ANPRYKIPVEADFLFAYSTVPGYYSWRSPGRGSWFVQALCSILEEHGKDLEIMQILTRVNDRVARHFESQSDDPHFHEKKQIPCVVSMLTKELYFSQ
Protocol: Following incubation at 4° C. for 60 min, the beads were removed by centrifugation and washed twice with 100 vol 50 mM Tris (pH 7.5), 150 mM KCl, 2 mM DTT and 0.025% Triton-X100, then subjected to SDS-PAGE and immunoblot assay (see Example I.B.3).

caspase-6 = target: T2, caspase-6 (Homo sapiens, UniProt P55212); test: Inhibition of purified recombinant caspase-6, DEVD substrate hydrolysis; format: biochemical
T2 construct: Purified active caspase concentrations ranged from 0.1 nM to 10 nM; His6; made in house; host or cells: E. coli BL21(DE3)pLysS
T2 sequence (P55212 24-179 limits assumed): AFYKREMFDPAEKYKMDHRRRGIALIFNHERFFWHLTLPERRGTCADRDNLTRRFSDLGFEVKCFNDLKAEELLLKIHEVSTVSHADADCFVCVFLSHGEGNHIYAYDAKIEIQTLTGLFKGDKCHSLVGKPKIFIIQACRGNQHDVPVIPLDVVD
T2 sequence (P55212 194-293 limits assumed): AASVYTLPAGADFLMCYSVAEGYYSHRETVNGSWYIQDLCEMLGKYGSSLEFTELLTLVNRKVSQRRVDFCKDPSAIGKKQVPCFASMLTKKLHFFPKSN
Protocol: Purified recombinant caspase-1, caspase-3, caspase-6, caspase-7 or caspase-8 were incubated with DEVD-pNA, either alone or with a 10-fold to 50-fold molar excess of GST-XIAP ([…]) and substrate hydrolysis was measured. Purified active caspase concentrations ranged from 0.1 nM to 10 nM. XIAP concentration ranged from 0.1 nM to 500 nM. Assays were performed in caspase buffer (50 mM Tris, pH 7.4, 100 mM NaCl, 10% sucrose, 5–10 mM DTT, 1 mM EDTA and 0.1% CHAPS).
Equilibria were determined from progress curves when substrate hydrolysis reached a steady-state; slopes were calculated by curve fit analysis using the cricket graph program. Experiments were performed using purified recombinant caspase-3, caspase-6, or caspase-7. DEVD-AFC hydrolysis was measured using 0.1 nM caspase and a range of concentrations (0.2 to 12 μM) of recombinant XIAP (rXIAP). […] Average ratio velocities (vi/vo, where “vi” indicates presence of GST-XIAP and “vo” indicates absence of GST-XIAP) were determined.

caspase-9 = target: T3, caspase-9 (Homo sapiens, UniProt P55211); test: Inhibition of purified recombinant active caspase-9; format: biochemical; settings: for pro-caspase-3 activation by caspase-9, coupled Ac-DEVD-AFC hydrolysis (in words): coupled reaction
T3 construct: Full length N-terminally tagged caspase-9 was subcloned from pcDNA3; His6 (N); made in house; host or cells: E. coli BL21 (DE3), vector pET-23d
T3 sequence (P55211 1-315 limits assumed): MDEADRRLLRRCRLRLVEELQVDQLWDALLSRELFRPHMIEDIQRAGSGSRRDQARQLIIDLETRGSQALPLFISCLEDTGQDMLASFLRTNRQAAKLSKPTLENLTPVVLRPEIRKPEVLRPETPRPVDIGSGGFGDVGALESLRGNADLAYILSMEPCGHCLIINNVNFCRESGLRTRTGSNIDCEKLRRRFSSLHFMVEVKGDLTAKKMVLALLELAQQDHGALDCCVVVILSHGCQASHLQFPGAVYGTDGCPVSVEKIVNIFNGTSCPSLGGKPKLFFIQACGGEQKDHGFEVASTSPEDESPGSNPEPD
T3 sequence (P55211 331-416 limits assumed): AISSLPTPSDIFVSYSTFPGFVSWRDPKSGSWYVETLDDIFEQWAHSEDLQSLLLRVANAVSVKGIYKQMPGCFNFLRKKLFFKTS
Protocol: Caspase-9 activity was measured by monitoring the processing and activity of the purified recombinant zymogen form of caspase-3 that was produced in bacteria. Active caspase-9 (0.1 μM) was incubated with pro-caspase-3 (0.5 μM) in the presence or absence of GST-XIAP (0.1 μM). Experiments were performed with two independent preparations of active caspase-9. Samples were subsequently analyzed for pro-caspase-3 processing by immunoblot analysis. Asterisks denote the processed forms of the large subunit of caspase-3. Samples were simultaneously assayed for release of the AFC fluorophore from DEVD-AFC. Activity was arbitrarily designated as 100% for one of the two preparations of active caspase-9.
For the results shown in FIG. 7C, pro-caspase-9 was in vitro translated in reticulocyte lysates in the presence of ^35S-L-methionine and then purified by metal chromatography. […] Proteins were analyzed by SDS-PAGE and autoradiography. An asterisk denotes the processed form of caspase-9.

Row | Substance | DEVD-pNA hydrolysis, ΔA405 after 15 min ([1]; untreated ≈0.02) | DEVD-pNA hydrolysis, ΔA405 after 20 min ([1]; untreated ≈0.025) | binding of caspase-7 (in words) (caspase-7) | interference with substrate cleavage by caspase-6 (caspase-6; 50-fold molar excess) | average ratio velocity (vi/vo), caspase-6 (caspase-6; DEVD-AFC hydrolysis with/without GST-XIAP) | processing of 35S-pro-caspase-9 by active caspase-9 (in words) (caspase-9; 0.1 μM caspase-9, 0.1 μM GST-XIAP, 30° C., 1 hr) | pro-caspase-3 activation by caspase-9, coupled Ac-DEVD-AFC hydrolysis (in words) (caspase-9) | cleavage of pro-caspase-3 by caspase-9, immunoblot (in words) (caspase-9; equimolar to caspase-9 (0.1 μM), pro-caspase-3 0.5 μM)
1 | XIAP: X chromosome linked inhibitor of apoptosis protein (Genbank U32974), used mostly as recombinant GST fusion or expressed from plasmid | ≈ 0.025 | ≈ 0.03 | Specific binding | did not interfere | about 1.0 | potently inhibited | efficiently inhibited | strongly inhibited
2 | c-IAP-2: cellular IAP protein c-IAP-2/HIAP-1/hMIHC, recombinant GST fusion or myc-tagged | – | – | bound | – | – | – | efficiently inhibited | –
